Reference: patent US11779592B2, “Inhibition of NGLY1 for the treatment of cancer” (University of North Texas Health Science Center, priority 2017, dated 2023)

Legend:
[1] = tested on: NGLY1; experiment: NGLY1 expression in stable clones of melanoma cells (immunoblotting); format: cell-based, human; settings: stable clones of MALME3M, UACC257 and SK-MEL-2 cells, 48-hour treatment of dox
Text: These NGLY1-targeting shRNA sequences and a scrambled (non-targeting) shRNA sequence were cloned into doxycycline (dox)-inducible, polycistronic green fluorescence protein (GFP)-shRNA expression constructs (a pZIP inducible lentiviral vector, TransOMIC). Stable clones have been generated with the shRNA expression constructs in multiple human melanoma cell lines, including MALME3M, UACC257, SK-MEL-2, and COLO829 melanoma cells. […] Similar knockdown effects were found in the stable clones of other melanoma cells with this particular NGLY1 shRNA sequence. […] Similar to human normal fibroblasts, normal melanocytes (FIG. 5D) and keratinocytes appeared to well tolerate NGLY1 knockdown and show no sign of increased cell death. In addition, SK-MEL-2, MALME3M cells that express inducible NGLY1 shRNA presented significant apoptosis, compared to their scrambled RNA-expressing counterparts. The expression of exogenous human NGLY1 in melanoma cells attenuated NGLY1-targeting shRNA-induced apoptosis (FIG. 5E).
(§1) The knockdown of NGLY1 expression in melanoma cells was achieved by the transduction of pZIP-TRE3GS lentiviral expression vectors that carry two independent shRNA sequences (Below; TransOMIC Technologies, Huntsville, AL). […] The expression of the shRNA sequences and an open reading frame of the ZsGreen reporter is driven by the TRE3GS doxycycline-inducible promoter. […]

[2] = tested on: SK-MEL-2 tumors; experiment: Xenograft tumor model with SK-MEL-2 cells carrying inducible shRNA; format: in vivo, mice
Text: (FIG. 14A) A schematic illustration of animal study design to test the in vivo antitumor efficacy of NGLY1 suppression in melanoma. (FIG. 14B) The volume changes of xenograted SK-MEL-2 tumors with the induction of NT-shRNA (n=10) and NGLY1-shRNA645 (n=8) for 35 days. Tumors were harvested at the end of the study for Western blotting analysis. Bars: median tumor volumes at the indicated time points. […] (FIG. 14C) The expression of NGLY1, GADD153, IRF3, and GFP (ZsGreen) proteins in selected tumors was analyzed by Western blotting. (FIG. 14D) The enhanced expression of IL-29 in the tumor tissues with NGLY1 knockdown was detected by immunofluorescence staining.
Six-week-old female NOD.CB17-Prkdc^scid/J mice (The Jackson Laboratory, Bar Harbor, ME) were group-housed under conditions of constant photoperiod (12 hours light: 12 hours dark) with ad libitum access to sterilized food and water. Since the animal work in this study was completed using an animal study service provided by the translational core laboratory at the University of Maryland, Baltimore, all experimental procedures and protocols utilizing mice were approved by the Institutional Animal Care and Use Committee at the University of Maryland. […] Tumors were measured weekly using calipers and their volumes calculated using a standard formula: width^2×length×0.52. Body weights were measured weekly. […]

[3] = tested on: UACC257 cells; experiment: Cell morphology of UACC257 stable clones with dox-inducible shRNA; format: cell-based, human; settings: 2 μM dox for 72 hours
Experimental: (FIG. 5A) The doxycycline (dox)-inducible pZIP-TRE3GS expression vector of non-targeting shRNA and NGLY1-targeting shRNA sequences. (FIG. 5B) The stable clones of UACC257 cells with dox-inducible shRNA. […] Cells with induced non-targeting (scramble)-shRNA maintain a morphology similar to the cells before dox induction. Cells were imaged after the treatment of 2 μM dox for 72 hours. BF: bright field. ZsGreen: green fluorescence protein. […] (FIG. 5E) The expression of human NGLY1-FLAG in SK-MEL-2 (SK) cells attenuates NGLY1-targeting shRNA-induced apoptosis. EV: empty vector, NGLY1-F: NGLY1-FLAG expression vector. […] All data were presented as mean±standard deviation (n=3, *P<0.05, […]). […] The cell viability curves of combinatorial treatment were plotted according to the doses of dox used in the treatment. Combination indexes were calculated using Calcusyn software. A combination index value <1 was considered synergistic. A combination index value <0.2 was considered highly synergistic. […]
as §1

[4] = tested on: HepG2 liver cancer cells; experiment: Cell morphology of HepG2 cells with NGLY1 knockdown; format: cell-based
[5] = tested on: U-251MG glioblastoma cells; experiment: Cell morphology of U-251MG cells with NGLY1 knockdown; format: cell-based

B1: NGLY1-shRNA645: NGLY1-targeting shRNA sequence (SEQ ID NO: 5), dox-inducible lentiviral vector; used in the xenograft study (nucleic acid)
DNA: CCGAGUUUCAAAUAACAAUCAAUAGUGAAGCCACAGAUGUAUUGAUUGUUAUUUGAAACUCGAU
[1]
  expression of NGLY1: largely suppressed
[2]; after size increase during the initial 3-4 weeks of dox treatment
  tumors that showed regression at the end of the study: three out of eight
[2]; dox-induced knockdown, 5 weeks
  growth of melanoma tumors: impeded
[3]
  cell morphology: morphological features of apoptosis
[4]
  cell morphology: morphology of apoptosis
[5]
  cell morphology: morphology of apoptosis
